Data from patent publication US6300131, “Telomerase-associated proteins” (Johns Hopkins University, dated 2001).

Target: ribosomal associated protein L22 (human, UniProt P35268)
Experiment: co-immunoprecipitation from 293 cell lysate, Western blot
Protocol: Multi-tissue northern blots (Clontech) were hybridized with a 0.7 kb BamHI-EcoRI hStau cDNA probe according to the manufacturer's procedures. In particular, blots were hybridized at 68° C. in ExpressHyb solution (Clontech) for 1 hour with shaking. Blots were washed several times in 2×SSC, 0.05% SDS at room temperature, with a final wash in 0.1×SSC and 0.1% SDS at 60° C. for about 40 minutes. The blots then were re-probed with an actin probe without stripping the hStau signal. Signal intensity was quantified on a BAS 1500 PhosphorImager system (Fuji Medical System, Inc, Stamford, Conn.).

B1: human staufen (hStau) polypeptide (other)
chain: MKLGKKPMYKPVDPYSRMRSTYNYNMRGGAYPPRYFYPFPVPPLLYQVELSVGGQQFNGKGKTRQAAKHDAAAKALRILQNEPLPERLEVNGRESEEENLNKSEISQVFEIALKRNLPVNFEVARESGPPHMKNFVTKVSVGEFVGEGEGKSKKISKKNAAIAVLEELKKLPPLPAVERVKPRIKKKTKPIVKPQTSPEYGQGINPISRLAQIQQAKKEKEPEYTLLTERGLPRRREFVMQVKVGNHTAEGTGTNKKVAKRNAAENMLEILGFKVPQAQPTKPALKSEEKTPIKKPGDGRKVTFFEPGSGDENGTSNKEDEFRMPYLSHQQLPAGILPMVPEVAQAVGVSQGHHTKDFTRAAPNPAKATVTAMIARELLYGGTSPTAETILKNNISSGHVPHGPLTRPSEQLDYLSRVQGFQVEYKDFPKNNKNEFVSLINCSSQPPLISHGIGKDVESCHDMAALNILKLLSELDQQSTEMPRTGNGPMSVCGRC
B1: no binding.
